Measurements reported in CN101386648A (MICROORGANISM EPIDEMIC INST OF, dated 2009).

T1: B型肉毒神经毒素 (botulinum neurotoxin type B) (Clostridium botulinum, UniProt P10844 2-1291)
T1 sequence: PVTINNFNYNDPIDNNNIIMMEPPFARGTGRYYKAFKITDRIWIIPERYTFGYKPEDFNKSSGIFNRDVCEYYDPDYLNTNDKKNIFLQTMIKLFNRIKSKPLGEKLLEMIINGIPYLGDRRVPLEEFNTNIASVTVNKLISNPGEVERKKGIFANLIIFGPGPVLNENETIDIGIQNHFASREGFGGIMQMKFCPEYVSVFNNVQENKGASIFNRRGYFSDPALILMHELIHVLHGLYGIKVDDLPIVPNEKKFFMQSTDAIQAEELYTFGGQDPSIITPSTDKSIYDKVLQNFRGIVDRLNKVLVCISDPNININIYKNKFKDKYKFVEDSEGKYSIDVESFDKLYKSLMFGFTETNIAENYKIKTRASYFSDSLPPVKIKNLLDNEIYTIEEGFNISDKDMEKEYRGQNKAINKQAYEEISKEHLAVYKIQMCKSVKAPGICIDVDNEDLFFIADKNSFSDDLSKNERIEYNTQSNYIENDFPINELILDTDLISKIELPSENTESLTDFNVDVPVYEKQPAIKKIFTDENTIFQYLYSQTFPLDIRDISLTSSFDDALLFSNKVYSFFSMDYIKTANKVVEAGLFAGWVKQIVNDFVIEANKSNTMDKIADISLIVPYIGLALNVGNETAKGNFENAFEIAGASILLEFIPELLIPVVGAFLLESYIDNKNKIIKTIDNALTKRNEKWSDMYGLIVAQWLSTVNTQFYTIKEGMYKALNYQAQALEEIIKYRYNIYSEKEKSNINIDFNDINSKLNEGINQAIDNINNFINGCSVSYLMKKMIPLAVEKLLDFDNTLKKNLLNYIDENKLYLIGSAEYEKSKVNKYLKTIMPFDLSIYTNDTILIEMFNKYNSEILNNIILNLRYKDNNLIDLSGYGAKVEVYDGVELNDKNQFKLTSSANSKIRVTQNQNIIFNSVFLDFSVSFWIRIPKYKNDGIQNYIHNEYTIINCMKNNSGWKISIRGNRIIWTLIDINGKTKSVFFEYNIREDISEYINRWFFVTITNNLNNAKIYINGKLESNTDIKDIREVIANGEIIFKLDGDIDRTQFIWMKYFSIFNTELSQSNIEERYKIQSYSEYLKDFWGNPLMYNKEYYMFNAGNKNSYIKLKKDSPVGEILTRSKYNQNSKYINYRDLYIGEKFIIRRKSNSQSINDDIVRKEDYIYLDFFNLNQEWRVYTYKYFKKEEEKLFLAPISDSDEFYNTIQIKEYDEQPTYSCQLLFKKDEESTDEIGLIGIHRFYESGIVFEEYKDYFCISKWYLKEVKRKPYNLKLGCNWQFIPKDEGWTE

T2: F型肉毒神经毒素 (botulinum neurotoxin type F) (Clostridium botulinum, UniProt P30996 1-1274)
T2 sequence: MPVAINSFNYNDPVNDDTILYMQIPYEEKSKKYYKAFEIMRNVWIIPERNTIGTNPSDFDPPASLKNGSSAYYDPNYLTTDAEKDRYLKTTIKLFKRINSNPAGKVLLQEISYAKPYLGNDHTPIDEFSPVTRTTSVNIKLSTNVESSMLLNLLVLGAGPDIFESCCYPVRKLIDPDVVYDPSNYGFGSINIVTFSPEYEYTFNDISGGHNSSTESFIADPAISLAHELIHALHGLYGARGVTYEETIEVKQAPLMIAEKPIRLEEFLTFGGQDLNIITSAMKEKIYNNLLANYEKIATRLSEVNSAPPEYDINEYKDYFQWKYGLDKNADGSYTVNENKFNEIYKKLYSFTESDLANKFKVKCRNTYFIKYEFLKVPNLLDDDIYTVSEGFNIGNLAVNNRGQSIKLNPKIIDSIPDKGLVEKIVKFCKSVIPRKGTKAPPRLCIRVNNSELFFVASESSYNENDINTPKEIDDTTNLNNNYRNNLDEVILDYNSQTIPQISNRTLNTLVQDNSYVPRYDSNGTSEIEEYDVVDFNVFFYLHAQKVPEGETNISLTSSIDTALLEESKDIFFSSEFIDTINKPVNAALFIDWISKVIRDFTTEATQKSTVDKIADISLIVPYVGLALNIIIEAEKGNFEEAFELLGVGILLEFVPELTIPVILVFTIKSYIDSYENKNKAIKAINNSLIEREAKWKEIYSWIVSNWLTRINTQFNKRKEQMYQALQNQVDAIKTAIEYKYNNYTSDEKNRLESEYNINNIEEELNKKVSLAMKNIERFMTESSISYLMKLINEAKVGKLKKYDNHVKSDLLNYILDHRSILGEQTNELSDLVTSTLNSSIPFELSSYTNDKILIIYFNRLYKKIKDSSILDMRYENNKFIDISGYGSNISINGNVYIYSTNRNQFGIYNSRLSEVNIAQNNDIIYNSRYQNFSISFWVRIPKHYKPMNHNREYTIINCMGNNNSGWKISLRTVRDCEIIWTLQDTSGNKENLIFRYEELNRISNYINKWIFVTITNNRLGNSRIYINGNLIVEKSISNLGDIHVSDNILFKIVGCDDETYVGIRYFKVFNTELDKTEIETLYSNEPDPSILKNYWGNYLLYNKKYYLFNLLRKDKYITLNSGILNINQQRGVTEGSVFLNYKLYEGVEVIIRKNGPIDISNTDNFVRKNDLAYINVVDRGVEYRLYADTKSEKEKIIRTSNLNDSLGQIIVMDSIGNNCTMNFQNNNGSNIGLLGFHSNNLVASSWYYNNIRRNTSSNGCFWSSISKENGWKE

T3: E型肉毒神经毒素 (botulinum neurotoxin type E) (Clostridium botulinum, UniProt Q00496 2-1251)
T3 sequence: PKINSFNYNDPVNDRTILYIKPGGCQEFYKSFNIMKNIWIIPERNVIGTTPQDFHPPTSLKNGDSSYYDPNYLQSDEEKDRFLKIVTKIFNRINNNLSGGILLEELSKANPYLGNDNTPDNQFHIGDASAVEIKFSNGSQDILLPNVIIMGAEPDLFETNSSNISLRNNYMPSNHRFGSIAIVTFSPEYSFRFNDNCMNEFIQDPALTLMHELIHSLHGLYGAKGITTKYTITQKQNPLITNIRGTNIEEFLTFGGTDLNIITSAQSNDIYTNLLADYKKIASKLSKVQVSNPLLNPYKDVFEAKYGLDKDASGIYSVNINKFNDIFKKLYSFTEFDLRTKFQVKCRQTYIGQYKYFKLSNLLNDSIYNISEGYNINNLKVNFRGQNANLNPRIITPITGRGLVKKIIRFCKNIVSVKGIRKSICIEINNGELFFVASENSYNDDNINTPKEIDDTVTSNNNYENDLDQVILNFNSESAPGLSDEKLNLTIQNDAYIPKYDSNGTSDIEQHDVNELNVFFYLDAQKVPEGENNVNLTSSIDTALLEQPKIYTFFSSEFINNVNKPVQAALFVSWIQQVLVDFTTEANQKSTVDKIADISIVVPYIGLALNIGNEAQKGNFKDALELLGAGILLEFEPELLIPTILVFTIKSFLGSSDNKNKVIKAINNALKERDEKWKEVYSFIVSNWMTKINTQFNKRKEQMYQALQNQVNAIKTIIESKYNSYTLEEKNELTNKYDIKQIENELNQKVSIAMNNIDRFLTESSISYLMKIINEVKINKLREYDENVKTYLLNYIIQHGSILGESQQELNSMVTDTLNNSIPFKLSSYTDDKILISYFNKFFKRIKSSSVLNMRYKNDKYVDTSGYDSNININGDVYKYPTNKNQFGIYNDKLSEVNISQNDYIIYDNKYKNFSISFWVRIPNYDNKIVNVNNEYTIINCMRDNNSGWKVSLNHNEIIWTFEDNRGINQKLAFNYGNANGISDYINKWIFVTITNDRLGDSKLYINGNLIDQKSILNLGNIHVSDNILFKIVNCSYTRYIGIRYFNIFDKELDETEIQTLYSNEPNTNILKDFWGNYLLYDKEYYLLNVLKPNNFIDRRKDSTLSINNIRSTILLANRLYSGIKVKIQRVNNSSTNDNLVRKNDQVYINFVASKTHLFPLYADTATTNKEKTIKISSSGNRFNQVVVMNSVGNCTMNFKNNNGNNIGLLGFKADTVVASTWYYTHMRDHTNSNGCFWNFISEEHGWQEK

B1: 人源化抗B型肉毒神经毒素中和性抗体HuBNbP8 (recombinant MBP-scFv fusion protein expressed from pMAL-HuFv) (scFv)
scFv: AQVQLVQSGAEVVKPGASVKLSCKASGYTFTSYYIYWVKQRPGQGLGWIGEIYPSNGGTNFNEKFKTKATLTVDKSASTAYMQLSSLTSEDSTVYYCARMGNYGGSYFDYWGQGTTLTVSSGGGGSGGGGSGGGGSDIVLTQSPATLSVTPGESVSLSCGASQSISNNLHWYQQKSHESPRLLIKFASQSISGIPSKFSGSGSGTDFSLSINSLETEDFGVFFCQQSDTWPYTFGGGTKLEIKRAAAE
B2: 鼠源抗B型肉毒神经毒素中和性抗体MuBNbP8 (recombinant MBP-scFv fusion protein expressed from pMAL-MuFv) (scFv)
scFv: AQVKLQQSGAELVKPGASVKLSCKASGYTFTSYYIYWVKQRPGQGLGWIGEIYPSNGGTNFNEKFKTKATLTVDKSSSTAYMQLSSLTSEDSTVYYCARMGNYGGSYFDYWGQGTTLTVSSGGGGSGGGGSGGGGSDIVLTQSPATLSVTPGDSVSLSCGASQSISNNLHWYQQKSHESPRLLIKFASQSISGIPSKFSGSGSGTDFSLSINSLETEDFGVFFCQQSDTWPYTFGGGTKLEIKRAAAE

What was measured:
[1] = target: T1, B型肉毒神经毒素 (botulinum neurotoxin type B); experiment: SPR (Biacore 3000, CM5 chip), […]
[2] = target: A型肉毒神经毒素 (botulinum neurotoxin type A) (Clostridium botulinum, UniProt P0DPI0 2-1296); experiment: ELISA
[3] = target: T2, F型肉毒神经毒素 (botulinum neurotoxin type F); experiment: ELISA
[4] = target: T3, E型肉毒神经毒素 (botulinum neurotoxin type E); experiment: ELISA

Chain of A型肉毒神经毒素 (botulinum neurotoxin type A) (P0DPI0 2-1296 limits assumed): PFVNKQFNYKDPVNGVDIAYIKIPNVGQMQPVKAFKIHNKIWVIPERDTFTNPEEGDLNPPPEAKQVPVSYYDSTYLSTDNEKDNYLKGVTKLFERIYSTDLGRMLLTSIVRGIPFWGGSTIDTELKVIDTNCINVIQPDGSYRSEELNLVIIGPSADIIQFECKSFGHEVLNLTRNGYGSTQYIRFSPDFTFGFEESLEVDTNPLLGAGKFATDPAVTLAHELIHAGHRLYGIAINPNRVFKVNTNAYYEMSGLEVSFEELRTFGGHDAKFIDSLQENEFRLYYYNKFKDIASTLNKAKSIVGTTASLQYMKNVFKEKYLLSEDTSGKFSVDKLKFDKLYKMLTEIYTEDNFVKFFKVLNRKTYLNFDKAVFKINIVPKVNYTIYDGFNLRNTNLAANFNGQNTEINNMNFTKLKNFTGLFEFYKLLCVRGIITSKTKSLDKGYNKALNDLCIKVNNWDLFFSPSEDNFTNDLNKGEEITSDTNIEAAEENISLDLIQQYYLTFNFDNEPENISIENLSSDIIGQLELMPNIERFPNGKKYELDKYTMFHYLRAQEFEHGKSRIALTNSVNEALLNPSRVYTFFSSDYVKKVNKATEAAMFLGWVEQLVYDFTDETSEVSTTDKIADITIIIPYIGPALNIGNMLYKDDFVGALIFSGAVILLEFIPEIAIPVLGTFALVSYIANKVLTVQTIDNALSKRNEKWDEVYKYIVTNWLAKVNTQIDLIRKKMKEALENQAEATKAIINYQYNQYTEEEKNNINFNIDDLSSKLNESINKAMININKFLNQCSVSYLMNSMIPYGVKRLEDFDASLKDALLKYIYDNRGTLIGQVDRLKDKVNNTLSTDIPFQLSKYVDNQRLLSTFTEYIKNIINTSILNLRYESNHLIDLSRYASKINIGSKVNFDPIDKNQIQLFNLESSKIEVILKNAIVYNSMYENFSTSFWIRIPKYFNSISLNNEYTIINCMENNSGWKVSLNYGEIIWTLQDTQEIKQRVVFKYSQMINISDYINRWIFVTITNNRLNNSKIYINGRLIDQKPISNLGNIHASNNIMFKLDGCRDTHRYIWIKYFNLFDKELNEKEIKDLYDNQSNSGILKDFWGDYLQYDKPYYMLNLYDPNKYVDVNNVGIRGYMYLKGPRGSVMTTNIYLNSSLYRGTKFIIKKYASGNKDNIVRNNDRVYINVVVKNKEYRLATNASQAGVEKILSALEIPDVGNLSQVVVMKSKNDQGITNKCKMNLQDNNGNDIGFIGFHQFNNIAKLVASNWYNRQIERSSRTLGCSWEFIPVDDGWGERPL

Binder	Kd [1]	binding result [2]	binding result [3]	binding result [4]
B1	1.34 nM	no binding	no binding	no binding
B2	–	no binding	no binding	no binding
